Measurements: US20180030151A1
Read-outs that look alike come from different tables or passages of the source.

How the values were obtained:
[1] = target: recombinant human TFPI (tissue factor pathway inhibitor) (human) (UniProt P10646)
[2] = target: recombinant human TFPI (tissue factor pathway inhibitor) (human) (UniProt P10646); remark: listed apart in the source
[3] = target: recombinant human TFPI (tissue factor pathway inhibitor) (human) (UniProt P10646); remark: listed apart in the source
[4] = target: recombinant human TFPI (tissue factor pathway inhibitor) (human) (UniProt P10646); experiment: cell-based or functional assay
[5] = target: recombinant human TFPI (tissue factor pathway inhibitor) (human) (UniProt P10646); experiment: cell-based or functional assay; remark: listed apart in the source
[6] = target: recombinant human TFPI (tissue factor pathway inhibitor) (human) (UniProt P10646); remark: listed apart in the source
[7] = target: recombinant human TFPI (tissue factor pathway inhibitor) (human) (UniProt P10646); experiment: cell-based or functional assay; remark: listed apart in the source
[8] = target: recombinant human TFPI (tissue factor pathway inhibitor) (human) (UniProt P10646); remark: listed apart in the source
[9] = target: recombinant human TFPI (tissue factor pathway inhibitor) (human) (UniProt P10646); remark: listed apart in the source
[10] = target: recombinant human TFPI (tissue factor pathway inhibitor) (human) (UniProt P10646); remark: listed apart in the source

B1: mAb2021 (anti-TFPI Ab, Novo Nordisk) (antibody, from another filing, V domains shown)
VH: EVQLVESGGGLVKPGGSLRLSCAASGFTFSNYAMSWVRQTPEKRLEWVATISRSGSYSYFPDSVQGRFTISRDNAKNSLYLQMNSLRAEDTAVYYCARLGGYDEGDAMDSWGQGTTVTVSS
VL: DIVMTQTPLSLSVTPGQPASISCKSSQSLLESDGKTYLNWYLQKPGQSPQLLIYLVSILDSGVPDRFSGSGSGTDFTLKISRVEAEDVGVYYCLQATHFPQTFGGGTKVEIKR
**Q.** How did the FXa assay OD, 5 nM Ab, 10 nM TFPI [1] turn out when B1 was run?
**A.** 0.55

**Q.** And the FXa assay OD, 10 nM Ab, 10 nM TFPI [1]?
**A.** 0.763

**Q.** What about the FXa assay OD, 20 nM Ab, 10 nM TFPI [1] of the same binder?
**A.** 0.724

**Q.** And the FXa assay % of FXa alone, 2.5 nM Ab, 10 nM TFPI [2]?
**A.** 12.3%

**Q.** And the FXa assay % of FXa alone, 5 nM Ab, 10 nM TFPI [2]?
**A.** 90%

**Q.** What about the FXa assay % of FXa alone, 10 nM Ab, 10 nM TFPI [2] of the same binder?
**A.** 96.5%

**Q.** What about the FXa assay % of FXa alone, 20 nM Ab, 10 nM TFPI [2] of the same binder?
**A.** 88.8%

**Q.** And the FXa assay OD, 2.5 nM Ab, 10 nM TFPI [2]?
**A.** 0.0945

**Q.** What about the FXa assay OD, 5 nM Ab, 10 nM TFPI [2] of the same binder?
**A.** 0.693

**Q.** What about the FXa assay OD, 10 nM Ab, 10 nM TFPI [2] of the same binder?
**A.** 0.743

**Q.** And the FXa assay OD, 20 nM Ab, 10 nM TFPI [2]?
**A.** 0.683

**Q.** And the FXa assay % of FXa alone, 2.5 nM Ab, 10 nM TFPI [3]?
**A.** 6.2%

**Q.** And the FXa assay % of FXa alone, 5 nM Ab, 10 nM TFPI [3]?
**A.** 16.4%

**Q.** What about the FXa assay % of FXa alone, 10 nM Ab, 10 nM TFPI [3] of the same binder?
**A.** 87.5%

**Q.** And the FXa assay % of FXa alone, 20 nM Ab, 10 nM TFPI [3]?
**A.** 84.6%

**Q.** What about the FXa assay OD, 2.5 nM Ab, 10 nM TFPI [3] of the same binder?
**A.** 0.0475

**Q.** And the FXa assay OD, 5 nM Ab, 10 nM TFPI [3]?
**A.** 0.125

**Q.** And the FXa assay OD, 20 nM Ab, 10 nM TFPI [3]?
**A.** 0.644

**Q.** What about the A405, TF/FVIIa/FX complex assay, Ab 1.56 nM [4] of the same binder?
**A.** 0.151

**Q.** And the A405, TF/FVIIa/FX complex assay, Ab 3.13 nM [4]?
**A.** 0.171

**Q.** What about the A405, TF/FVIIa/FX complex assay, Ab 6.25 nM [4] of the same binder?
**A.** 0.18

**Q.** And the A405, TF/FVIIa/FX complex assay, Ab 12.5 nM [4]?
**A.** 0.233

**Q.** What about the A405, TF/FVIIa/FX complex assay, Ab 25 nM [4] of the same binder?
**A.** 0.955

**Q.** What about the A405, TF/FVIIa/FX complex assay, Ab 50 nM [4] of the same binder?
**A.** 0.951

**Q.** And the A405, TF/FVIIa/FX complex assay, Ab 100 nM [4]?
**A.** 0.966

**Q.** What about the % of Normalized, TF/FVIIa/FX complex assay, Ab 1.56 nM [5] of the same binder?
**A.** 5.2%

**Q.** And the % of Normalized, TF/FVIIa/FX complex assay, Ab 3.13 nM [5]?
**A.** 5.4%

**Q.** What about the % of Normalized, TF/FVIIa/FX complex assay, Ab 6.25 nM [5] of the same binder?
**A.** 7.3%

**Q.** What about the % of Normalized, TF/FVIIa/FX complex assay, Ab 12.5 nM [5] of the same binder?
**A.** 12.4%

**Q.** What about the % of Normalized, TF/FVIIa/FX complex assay, Ab 25 nM [5] of the same binder?
**A.** 54.4%

**Q.** What about the % of Normalized, TF/FVIIa/FX complex assay, Ab 50 nM [5] of the same binder?
**A.** 86.1%

**Q.** And the % of Normalized, TF/FVIIa/FX complex assay, Ab 100 nM [5]?
**A.** 100%

**Q.** And the FXa assay % of FXa alone, 2.5 nM Ab, 10 nM TFPI [6]?
**A.** 9%

**Q.** And the FXa assay % of FXa alone, 5 nM Ab, 10 nM TFPI [6]?
**A.** 61.3%

**Q.** And the FXa assay % of FXa alone, 10 nM Ab, 10 nM TFPI [6]?
**A.** 97.4%

**Q.** What about the FXa assay % of FXa alone, 20 nM Ab, 10 nM TFPI [6] of the same binder?
**A.** 93.6%

**Q.** What about the FXa assay OD, 2.5 nM Ab, 10 nM TFPI [6] of the same binder?
**A.** 0.065

**Q.** What about the FXa assay OD, 5 nM Ab, 10 nM TFPI [6] of the same binder?
**A.** 0.441

**Q.** And the FXa assay OD, 10 nM Ab, 10 nM TFPI [6]?
**A.** 0.701

**Q.** What about the FXa assay OD, 20 nM Ab, 10 nM TFPI [6] of the same binder?
**A.** 0.673

**Q.** What about the A405, TF/FVIIa/FX complex assay, Ab 1.56 nM [7] of the same binder?
**A.** 0.137

**Q.** What about the A405, TF/FVIIa/FX complex assay, Ab 3.13 nM [7] of the same binder?
**A.** 0.143

**Q.** And the A405, TF/FVIIa/FX complex assay, Ab 6.25 nM [7]?
**A.** 0.156

**Q.** What about the A405, TF/FVIIa/FX complex assay, Ab 12.5 nM [7] of the same binder?
**A.** 0.241

**Q.** And the A405, TF/FVIIa/FX complex assay, Ab 25 nM [7]?
**A.** 0.932

**Q.** What about the A405, TF/FVIIa/FX complex assay, Ab 50 nM [7] of the same binder?
**A.** 0.953

**Q.** And the A405, TF/FVIIa/FX complex assay, Ab 100 nM [7]?
**A.** 0.952

**Q.** What about the FXa assay % of FXa alone, 2.5 nM Ab, 10 nM TFPI [8] of the same binder?
**A.** 8.7%

**Q.** What about the FXa assay % of FXa alone, 5 nM Ab, 10 nM TFPI [8] of the same binder?
**A.** 33.6%

**Q.** What about the FXa assay % of FXa alone, 10 nM Ab, 10 nM TFPI [8] of the same binder?
**A.** 92.4%

**Q.** What about the FXa assay % of FXa alone, 20 nM Ab, 10 nM TFPI [8] of the same binder?
**A.** 91.4%

**Q.** What about the FXa assay OD, 2.5 nM Ab, 10 nM TFPI [8] of the same binder?
**A.** 0.071

**Q.** What about the FXa assay OD, 5 nM Ab, 10 nM TFPI [8] of the same binder?
**A.** 0.273

**Q.** What about the FXa assay OD, 10 nM Ab, 10 nM TFPI [8] of the same binder?
**A.** 0.75

**Q.** And the FXa assay OD, 20 nM Ab, 10 nM TFPI [8]?
**A.** 0.742

**Q.** And the FXa assay % of FXa alone, 2.5 nM Ab, 10 nM TFPI [9]?
**A.** 6.6%

**Q.** What about the FXa assay % of FXa alone, 5 nM Ab, 10 nM TFPI [9] of the same binder?
**A.** 35%

**Q.** What about the FXa assay % of FXa alone, 10 nM Ab, 10 nM TFPI [9] of the same binder?
**A.** 98.5%

**Q.** And the FXa assay % of FXa alone, 20 nM Ab, 10 nM TFPI [9]?
**A.** 85.8%

**Q.** And the FXa assay OD, 2.5 nM Ab, 10 nM TFPI [9]?
**A.** 0.032

**Q.** And the FXa assay OD, 5 nM Ab, 10 nM TFPI [9]?
**A.** 0.17

**Q.** What about the FXa assay OD, 10 nM Ab, 10 nM TFPI [9] of the same binder?
**A.** 0.476

**Q.** What about the FXa assay OD, 20 nM Ab, 10 nM TFPI [9] of the same binder?
**A.** 0.415

**Q.** What about the FXa assay % of FXa alone, 2.5 nM Ab, 10 nM TFPI [10] of the same binder?
**A.** 9.2%

**Q.** What about the FXa assay % of FXa alone, 5 nM Ab, 10 nM TFPI [10] of the same binder?
**A.** 87%

**Q.** And the FXa assay % of FXa alone, 10 nM Ab, 10 nM TFPI [10]?
**A.** 95.7%

**Q.** What about the FXa assay % of FXa alone, 20 nM Ab, 10 nM TFPI [10] of the same binder?
**A.** 98.3%

**Q.** What about the FXa assay OD, 2.5 nM Ab, 10 nM TFPI [10] of the same binder?
**A.** 0.0745

**Q.** What about the FXa assay OD, 5 nM Ab, 10 nM TFPI [10] of the same binder?
**A.** 0.702

**Q.** What about the FXa assay OD, 10 nM Ab, 10 nM TFPI [10] of the same binder?
**A.** 0.772

**Q.** What about the FXa assay OD, 20 nM Ab, 10 nM TFPI [10] of the same binder?
**A.** 0.793
